Literature values as cited in paper PMC4421034.

Target: Calmodulin (UniProt P0DP23)

- Kd: 1 nM
Substance: MLCK (from UniProt Q15746)
